Results published in patent US20110002929A1 (Ablynx, published 2011).

T1: human RANK-L (human, UniProt O14788 140-317, limits assumed)
T1 construct: Soluble protein, used coated, biotinylated or labelled in ELISA, AlphaScreen, FMAT and Biacore; also called hRANK-L; soluble human RANK-L
T1 sequence (looked up): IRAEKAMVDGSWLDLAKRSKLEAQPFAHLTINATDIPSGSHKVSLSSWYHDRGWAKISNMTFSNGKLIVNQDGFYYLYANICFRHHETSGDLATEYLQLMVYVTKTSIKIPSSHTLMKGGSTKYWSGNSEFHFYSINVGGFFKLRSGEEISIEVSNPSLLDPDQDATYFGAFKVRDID

T2: mouse RANK-L (mouse, UniProt O35235 158-316, limits assumed)
T2 construct: also called murine RANK-L
T2 sequence (looked up): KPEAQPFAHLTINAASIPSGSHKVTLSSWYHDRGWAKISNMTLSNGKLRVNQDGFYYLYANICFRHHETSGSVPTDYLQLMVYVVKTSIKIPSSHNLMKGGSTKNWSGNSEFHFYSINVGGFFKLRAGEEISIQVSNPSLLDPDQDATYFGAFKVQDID

T3: cynomolgus RANK-L, full length, membrane-bound, expressed on HEK293T cells (cynomolgus monkey, UniProt A0A7N9DBU4 1-317)
T3 construct: whole, on cells; also called cyno RANK-L
T3 sequence: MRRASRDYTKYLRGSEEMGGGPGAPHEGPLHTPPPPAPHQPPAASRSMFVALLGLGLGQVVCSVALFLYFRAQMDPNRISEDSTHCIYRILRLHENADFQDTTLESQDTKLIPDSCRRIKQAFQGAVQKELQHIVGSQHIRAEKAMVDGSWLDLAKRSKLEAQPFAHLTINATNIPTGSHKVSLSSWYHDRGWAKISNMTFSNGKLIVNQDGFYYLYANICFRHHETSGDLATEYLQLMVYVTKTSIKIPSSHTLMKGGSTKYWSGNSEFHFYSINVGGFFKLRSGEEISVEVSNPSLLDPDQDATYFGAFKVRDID

T4: CD40 ligand (UniProt P29965 113-261, limits assumed)
T4 sequence (looked up): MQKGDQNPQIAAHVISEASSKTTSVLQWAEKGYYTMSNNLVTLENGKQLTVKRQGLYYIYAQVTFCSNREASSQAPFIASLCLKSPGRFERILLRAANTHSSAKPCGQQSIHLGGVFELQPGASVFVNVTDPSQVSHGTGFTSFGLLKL

T5: human RANK-L, full length, membrane-bound, expressed on HEK293T cells (human, UniProt O14788 1-317)
T5 construct: whole, on cells; also called hRANK-L
T5 sequence (looked up): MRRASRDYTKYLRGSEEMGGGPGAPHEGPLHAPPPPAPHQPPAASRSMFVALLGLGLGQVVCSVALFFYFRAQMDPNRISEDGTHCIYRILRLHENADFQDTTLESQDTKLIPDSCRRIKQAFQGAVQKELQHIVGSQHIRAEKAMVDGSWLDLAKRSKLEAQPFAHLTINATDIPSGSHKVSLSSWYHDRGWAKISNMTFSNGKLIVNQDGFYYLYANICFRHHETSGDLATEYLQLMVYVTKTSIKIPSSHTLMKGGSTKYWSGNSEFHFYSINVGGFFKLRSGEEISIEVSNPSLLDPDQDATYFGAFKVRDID

B1: RANKL001p (VHH)
chain: EVQLVESGGGLVQPGGSLRLSCAASGFTFSSYPMGWFRQAPGKGREFVSSITGSGGSTYYADSVKGRFTISRDNAKNTLYLQMNSLRPEDTAVYYCAAYIRPDTYLSRDYRKYDYWGQGTLVTVSSGGGGSGGGSEVQLVESGGGLVQPGGSLRLSCAASGFTFSSYPMGWFRQAPGKGREFVSSITGSGGSTYYADSVKGRFTISRDNAKNTLYLQMNSLRPEDTAVYYCAAYIRPDTYLSRDYRKYDYWGQGTLVTVSSGGGC
modifications: PEG (3-Maleimidoproprionamide, 1,3-bis(Methoxy poly (ethylene glycol) modified 2-glycerol), Average MW 40,000) coupled after DTT reduction; the entry ends in GGGC
notes: Bivalent pegylated humanized Nanobody; also called RANKL13hum5-9GS-RANKL13hum5-PEG
B2: RANKL15 (VHH, not shown: small tags and cut ends)
VHH: EVQLVESGGGLVQAGGSLRLSCAAAGGTFRNYVMGWFRQAPGKEREFVTAISTGGSWTGYVDSVKDRFTISRDNTKNTVYLQMASLKPEDTAVYYCAATTPATTYLPRSERQYDYWGQGTQVTVSS
B3: RANKL13hum5 (VHH)
VHH: EVQLVESGGGLVQPGGSLRLSCAASGFTFSSYPMGWFRQAPGKGREFVSSITGSGGSTYYADSVKGRFTISRDNAKNTLYLQMNSLRPEDTAVYYCAAYIRPDTYLSRDYRKYDYWGQGTLVTVSS
B4: RANKL18hum6 (VHH)
VHH: EVQLVESGGGLVQPGGSLRLSCAASGRTFSRSAMGWFRQAPGKGREFVGFITGSGGTTYYADSVKGRFTISRDNAQNPVYLQMNSLRPEDTAVYYCAVYRRTYISSTYSESSEYDYWGQGTLVTVSS
B5: RANKL003p (VHH)
chain: EVQLVESGGGLVQPGGSLRLSCAASGRTFSRSAMGWFRQAPGKGREFVGFITGSGGTTYYADSVKGRFTISRDNAQNPVYLQMNSLRPEDTAVYYCAVYRRTYISSTYSESSEYDYWGQGTLVTVSSGGGGSGGGGSGGGGSGGGGSGGGGSGGGGSEVQLVESGGGLVQPGGSLRLSCAASGRTFSRSAMGWFRQAPGKGREFVGFITGSGGTTYYADSVKGRFTISRDNAQNPVYLQMNSLRPEDTAVYYCAVYRRTYISSTYSESSEYDYWGQGTLVTVSSGGGC
modifications: PEG (3-Maleimidoproprionamide, 1,3-bis(Methoxy poly (ethylene glycol) modified 2-glycerol), Average MW 40,000) coupled after DTT reduction; the entry ends in GGGC
notes: Bivalent pegylated humanized Nanobody; also called RANKL3p; RANKL18hum6-30GS-RANKL18hum6-PEG

Columns and labels:
human RANK-L [1] = molecular target: T1, human RANK-L; test: FMAT, ALEXA647-hRANK-L / RANK on HEK293T cells
human RANK-L [2] = molecular target: T1, human RANK-L; test: AlphaScreen, biotin-hRANK-L / RANK-huFc beads
TRAIL [3] = molecular target: T6, TRAIL (UniProt P50591 114-281, limits assumed); test: competition ELISA on human RANK-L-coated plates, 100 pM Nanobody preincubated with the ligand
T6 construct: also called tumor necrosis factor-related apoptosis inducing ligand

mouse RANK-L [4] = molecular target: T2, mouse RANK-L; test: as above
TNFα [5] = molecular target: T7, TNFα (UniProt P01375 77-233); test: as above
T7 construct: also called TNF-alpha

[6] = molecular target: T3, cynomolgus RANK-L, full length, …; test: FACS, HEK293T with cynomolgus RANK-L, 400 pM Nanobody
Protocol: (§1) Human embryonic kidney cells (HEK293T) were grown in Dulbecco's modified Eagles's medium supplemented with 10% fetal bovine serum (FBS), […] L-glutamine, 0.4 mM sodium pyruvate. […] After 48 hours, transfected cells were subjected to FACS analysis. […] Then cells were washed three times with FACS buffer. Bound Nanobodies were detected by subsequent incubations of a primary mouse anti Myc antibody (30 min at 4° C. (2 μg/ml)) and a second incubation with goat anti mouse-Phycoerythrin (PE) (Jackson Laboratories) for another 30 min at 4° C. Finally, after washing, the cells were resuspended in PBS+10% FBS+TO-PRO®-3 (5 nM) (Molecular Probes®, Invitrogen, Merelbeke, Belgium) and cell surface fluorescence expressed as mean PE fluorescence, was measured using flow cytometry.

TRAIL [7] = molecular target: T6, TRAIL; test: competition ELISA on RANK-L-coated plates, 1 nM Nanobody preincubated with the ligand
CD40 ligand = molecular target: T4, CD40 ligand; test: as above
TNFα [8] = molecular target: T7, TNFα; test: as above
[9] = molecular target: T5, human RANK-L, full length, …; test: FACS, HEK293T with human RANK-L, 3.2 pM Nanobody
Protocol: as §1

human RANK-L [10] = molecular target: T1, human RANK-L; test: AlphaScreen, biotin-hRANK-L / RANK-huFc beads; remark: listed apart in the source
human RANK-L [11] = molecular target: T1, human RANK-L; test: FMAT, ALEXA647-hRANK-L / RANK on HEK293T cells; remark: listed apart in the source
Protocol: HEK293T cells were transiently transfected with the plasmid expressing full length RANK using Fugene6 as described in example 3. After 24 hours aliquots of 60 μl (7.5×10³ cells) were plated into FMAT system 384-well plates (PE Biosystems, CA, US) and allowed to adhere for 24 h. After overnight adherence, culture supernatant was removed by gently tapping the plate. […] The plates were scanned after 10 hours of incubation. Cell surface fluorescence was measured by 8200 Cellular Detection System (Applied Biosystems, Foster City, Calif., US) which is a fluorescence macro-confocal, biological binding event analyzer that enables mix-and-read assays with live cells.

mouse RANK-L [12] = molecular target: T2, mouse RANK-L; test: ELISA, set-up as for human RANK-L
Summary of the method: (§2)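 Nanobodies at 500 nM to 160 pM in 1% casein/PBS incubated 1 h at room temperature; binding detected via anti-myc then anti-mouse-HRP with TMB, OD 450 nm.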

[13] = molecular target: T3, cynomolgus RANK-L, full length, …; test: FACS, HEK293T with cynomolgus RANK-L, 2000 pM Nanobody
Protocol: as §1

[14] = molecular target: T5, human RANK-L, full length, …; test: FACS, HEK293T with human RANK-L, 80 pM Nanobody
Protocol: as §1

[15] = molecular target: T5, human RANK-L, full length, …; test: FACS, HEK293T with human RANK-L, 2000 pM Nanobody
Protocol: as §1

human RANK-L [16] = molecular target: T1, human RANK-L; test: ELISA (ED50), biotin-hRANK-L on neutravidin
Summary of the method: as §2

[17] = molecular target: T5, human RANK-L, full length, …; test: FACS, HEK293T with human RANK-L, 400 pM Nanobody
Protocol: as §1

[18] = molecular target: T5, human RANK-L, full length, …; test: FACS, HEK293T with human RANK-L, 16 pM Nanobody
Protocol: as §1

human RANK-L [19] = molecular target: T1, human RANK-L; test: cell-based or functional assay
human RANK-L [20] = molecular target: T1, human RANK-L; test: AlphaScreen, biotin-hRANK-L / RANK-huFc beads; remark: listed apart in the source
Protocol: To this mixture, the RANK acceptor beads and the streptavidin donor beads were added and further incubated for 1 hour at room temperature. Fluorescence was measured by reading plates on the EnVision Multilabel Plate Reader (Perkin Elmer) using an excitation wavelength of 680 nm and an emission wavelength of 520 nm.

human RANK-L [21] = molecular target: T1, human RANK-L; test: SPR Biacore 3000, hRANK-L on CM5, 100 nM Nanobody; only indicative (one concentration)
Protocol: (§3) Binding kinetics of the humanized versions of Nanobodu RANL13 were also analysed by Surface Plasmon Resonance (Biacore 3000). […] Nanobody binding was assessed at one concentration (100 nM). Each Nanobody was injected for 4 minutes at a flow rate of 45 μl/min to allow binding to chip-bound antigen. Next, binding buffer without Nanobody was sent over the chip at the same flow rate to allow spontaneous dissociation of bound Nanobody.

human RANK-L [22] = molecular target: T1, human RANK-L; test: SPR Biacore 3000, hRANK-L on CM5, 100 nM Nanobody
Protocol: as §3

human RANK-L [23] = molecular target: T1, human RANK-L; test: AlphaScreen, biotin-hRANK-L / RANK-huFc beads; remark: listed apart in the source

T7 sequence (P01375 77-233 limits assumed): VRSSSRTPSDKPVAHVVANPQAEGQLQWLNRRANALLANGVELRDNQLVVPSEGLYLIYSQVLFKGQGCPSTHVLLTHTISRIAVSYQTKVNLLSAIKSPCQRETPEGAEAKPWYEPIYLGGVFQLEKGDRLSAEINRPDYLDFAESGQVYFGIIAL
T6 sequence (P50591 114-281 limits assumed): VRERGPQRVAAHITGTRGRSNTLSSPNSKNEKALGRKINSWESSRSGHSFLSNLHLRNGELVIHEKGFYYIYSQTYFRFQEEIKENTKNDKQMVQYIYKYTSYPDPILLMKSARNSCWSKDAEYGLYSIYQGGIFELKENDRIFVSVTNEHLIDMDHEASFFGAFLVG

Binder | IC50 (human RANK-L [1]) [nM] | IC50 (human RANK-L [2]) [nM] | binding result (TRAIL [3]) | binding result (mouse RANK-L [4]) | binding result (TNFα [5]) | Kd (human RANK-L [21]) [nM] | kon (human RANK-L [21]) [M⁻¹ s⁻¹] | koff (human RANK-L [22]) [s⁻¹] | IC50 (human RANK-L [23]) [nM] | other results
B1 | 0.041 | 0.049 | no binding (tested: 10 nM) | no binding (tested: 10 nM) | no binding (tested: 10 nM) |  |  |  |  | 
B2 |  |  |  |  |  |  |  |  |  | PE mean fluorescence [6]: 3410; binding result (TRAIL [7]): no binding (tested: approximately 100 nM); binding result (CD40 ligand): no binding (tested: approximately 100 nM); binding result (TNFα [8]): no binding (tested: approximately 100 nM); PE mean fluorescence [9]: 124; IC50 (human RANK-L [10]): 0.572 nM; IC50 (human RANK-L [11]): 0.534 nM; binding result (mouse RANK-L [12]): no binding (tested: 500 nM to 160 pM); PE mean fluorescence [13]: 11000; PE mean fluorescence [14]: 715; PE mean fluorescence [15]: 7720; EC50 (human RANK-L [16]): 0.266 nM; PE mean fluorescence [17]: 2640; PE mean fluorescence [18]: 250; RANK-L induced NF-kappaB activation (luciferase reporter, HEK293T cells), IC50 (human RANK-L [19]): 10 nM; IC50 (human RANK-L [20]): 0.283 nM
B3 | 0.137 | 0.188 |  |  |  | 0.26 | 800000 | 0.00021 | 0.091 | 
B4 | 0.38 | 0.087 |  |  |  | 0.16 | 500000 | 6.72e-05 | 0.138 | 
B5 | 0.038 | 0.025 | no binding (tested: 10 nM) | no binding (tested: 10 nM) | no binding (tested: 10 nM) |  |  |  |  | 
